Reference: article PMC2566879

Assays:
[1] = molecular target: histone H1 coupled to the SPR sensor chip (UniProt P02253); assay: SPR
[2] = molecular target: histone H3/H4 tetramer coupled to the SPR sensor chip (UniProt P84229); assay: SPR

Sequence of UniProt P02253 (P02253 whole entry): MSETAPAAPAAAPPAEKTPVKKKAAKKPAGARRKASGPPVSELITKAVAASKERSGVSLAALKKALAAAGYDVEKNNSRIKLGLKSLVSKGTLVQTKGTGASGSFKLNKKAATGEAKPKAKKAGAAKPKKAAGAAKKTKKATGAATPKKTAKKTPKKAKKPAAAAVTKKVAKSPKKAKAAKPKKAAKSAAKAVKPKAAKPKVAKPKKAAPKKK

Kd [1]: 13.8 nM | koff [1]: 0.000198 s⁻¹ | kon [1]: 14400 M⁻¹ s⁻¹ | Kd [2]: 237 nM | koff [2]: 0.000691 s⁻¹ | kon [2]: 2920 M⁻¹ s⁻¹
Substance: recombinant human somatic NASP (nuclear autoantigenic sperm protein), NH2-terminal 6His tag (from UniProt P49321-2 1-449) (natural protein)
